Patent publication US20250326862A1, “Antibody or Fragment Thereof Binding Specifically to Mertk, and Anti-Tumor Agent” (Chiome Bioscience Inc., priority 2021, published 2025)

Key:
Assay in all cases: ELISA, antigen immobilised at 5 ug/ml, HRP-labelled secondary antibody
[1] = target: T1, Recombinant Human Mer Fc Chimera Protein (R&D systems) (human, UniProt Q12866 26-499, limits assumed)
T1 construct: Bought reagent; also called human MerTK antigen; human Fc fusion protein of human MerTK; not shown: human Fc
T1 sequence (looked up): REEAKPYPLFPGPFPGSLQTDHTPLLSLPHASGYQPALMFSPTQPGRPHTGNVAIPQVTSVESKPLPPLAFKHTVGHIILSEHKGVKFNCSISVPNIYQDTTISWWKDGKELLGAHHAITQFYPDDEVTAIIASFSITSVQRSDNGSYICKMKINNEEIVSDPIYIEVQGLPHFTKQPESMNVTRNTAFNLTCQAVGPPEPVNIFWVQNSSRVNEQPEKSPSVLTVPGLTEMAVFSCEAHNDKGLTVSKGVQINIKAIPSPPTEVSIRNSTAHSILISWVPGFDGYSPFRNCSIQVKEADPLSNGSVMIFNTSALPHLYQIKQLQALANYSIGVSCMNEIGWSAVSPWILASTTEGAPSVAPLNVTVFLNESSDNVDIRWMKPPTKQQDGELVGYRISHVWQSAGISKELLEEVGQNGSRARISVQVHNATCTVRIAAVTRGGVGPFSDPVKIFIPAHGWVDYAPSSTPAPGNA
Experimental: (§1) The ELISA was performed according to the procedures indicated below. First, the respective antigens were added to an ELISA plate (Nunc) at a concentration of 5 μg/ml and immobilized overnight at room temperature. After removing the immobilization solution, 1% BSA/PBS was added for blocking reaction and left to stand at room temperature for 1 hour. After the blocking, the plate was washed with 0.05% Tween 20/PBS and an antibody solution was added for primary reaction at room temperature for 1 hour. After washing, an HRP-labelled antibody (GE Healthcare) was added for secondary reaction for 1 hour. After washing, a chromogenic substrate solution of TMB (Dako) was added for chromogenic reaction for 10 minutes, 1 N sulfuric acid was added to terminate the reaction and the absorbance was measured at 450 nm.

rat MerTKECD-hFc = target: T2, rat MerTKECD-hFc (rat, UniProt P57097 19-497)
T2 construct: extracellular domain; Prepared in the same manner as hMerTKECD-mFc and mMerTKECD-mFc; not shown: human Fc
T2 sequence (looked up): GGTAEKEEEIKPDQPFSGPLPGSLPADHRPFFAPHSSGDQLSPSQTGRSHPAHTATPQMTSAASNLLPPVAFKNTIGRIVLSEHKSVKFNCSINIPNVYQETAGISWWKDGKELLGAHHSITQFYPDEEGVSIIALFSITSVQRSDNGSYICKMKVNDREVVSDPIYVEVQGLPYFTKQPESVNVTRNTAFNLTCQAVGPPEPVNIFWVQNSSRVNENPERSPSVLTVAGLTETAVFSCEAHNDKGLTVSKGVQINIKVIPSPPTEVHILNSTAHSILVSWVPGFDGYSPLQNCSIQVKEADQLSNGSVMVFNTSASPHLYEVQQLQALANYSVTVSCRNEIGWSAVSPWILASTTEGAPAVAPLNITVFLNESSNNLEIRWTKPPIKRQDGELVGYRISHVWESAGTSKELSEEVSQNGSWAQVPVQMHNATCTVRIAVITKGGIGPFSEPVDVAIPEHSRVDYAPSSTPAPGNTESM
Experimental: as §1

[2] = target: T3, Recombinant Mouse Mer Fc Chimera Protein (R&D systems) (mouse, UniProt Q60805 23-496, limits assumed)
T3 construct: Bought reagent; also called mouse MerTK antigen; human Fc fusion protein of mouse MerTK; not shown: human Fc
T3 sequence (looked up): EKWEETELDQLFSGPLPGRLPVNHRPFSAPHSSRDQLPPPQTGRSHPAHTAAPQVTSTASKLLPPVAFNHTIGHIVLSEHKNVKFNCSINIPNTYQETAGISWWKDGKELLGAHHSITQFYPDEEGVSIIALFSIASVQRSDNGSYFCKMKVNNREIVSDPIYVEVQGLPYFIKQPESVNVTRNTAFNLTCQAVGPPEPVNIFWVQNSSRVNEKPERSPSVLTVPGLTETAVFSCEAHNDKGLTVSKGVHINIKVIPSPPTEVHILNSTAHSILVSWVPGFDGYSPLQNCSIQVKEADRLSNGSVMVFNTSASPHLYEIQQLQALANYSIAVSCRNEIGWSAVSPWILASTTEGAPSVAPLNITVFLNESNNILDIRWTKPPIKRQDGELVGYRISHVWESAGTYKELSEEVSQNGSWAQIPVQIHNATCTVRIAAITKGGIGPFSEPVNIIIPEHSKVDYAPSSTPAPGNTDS
Experimental: as §1

Measured: binding result

B1: m20A77_mIgG1 (antibody, V domains shown)
VH: QVQLQQPGTELVKPGASVKLSCRASGNTFTSYWMHWVKQRPGQGLEWIGNINPSSGGTNYNEKFKSKATLTVDKSSSTAYMQLSSLTSEDSAVYYCARLNYYGFDGFAFWGQGTLVTVSA
VL: DIKMTQSPSSMYASLGERVTITCKASQDINSYLSWFQQKPGKSPKTLIYRANRLVSGVPSRFSGSGSGQDYSLTISSLEYEDMGIYYCLQYDEFPFTFGSGTKLEIK
notes: CDR-modified variant of 20A77, made recombinantly with mouse IgG1 heavy chain and kappa light chain constant regions
binds: all assays above
